Test results from article PMC12095048 (Oncogene, 2025).

B1: GST-CHK2 (aa 1–193) (domain or fragment, UniProt O96017 1-193, looked up)
chain: MSRESDVEAQQSHGSSACSQPHGSVTQSQGSSSQSQGISSSSTSTMPNSSQSSHSSSGTLSSLETVSTQELYSIPEDQEPEDQEPEEPTPAPWARLWALQDGFANLECVNDNYWFGRDKSCEYCFDEPLLKRTDKYRTYSKKHFRIFREVGPKNSYIAYIEDHSGNGTFVNTELVGKGKRRPLNNNSEIALSL
B2: GST-HIF-1α (aa 81–200) (domain or fragment)
chain: not shown
B3: GST-HIF-1α (aa 400–575) (domain or fragment, UniProt Q16665 400-575, looked up)
chain: LAPAAGDTIISLDFGSNDTETDDQQLEEVPLYNDVMLPSPNEKLQNINLAMSPLPTAETPKPLRSSADPALNQEVALKLEPNPESLELSFTMPQIQDQTPSPSDGSTRQSSPEPNSPSEYCFYVDSDMVNEFKLELVEKLFAEDTEAKNPFSTQDTDLDLEMLAPYIPMDDDFQLR

Assays:
[1] = biological target: His-HIF-1α (WT), full length (UniProt Q16665 1-826); assay: pull-down
[2] = biological target: His-CHK2 (WT), full length (UniProt O96017 1-543); assay: pull-down

His-HIF-1α (WT), full length, sequence (Q16665 whole entry): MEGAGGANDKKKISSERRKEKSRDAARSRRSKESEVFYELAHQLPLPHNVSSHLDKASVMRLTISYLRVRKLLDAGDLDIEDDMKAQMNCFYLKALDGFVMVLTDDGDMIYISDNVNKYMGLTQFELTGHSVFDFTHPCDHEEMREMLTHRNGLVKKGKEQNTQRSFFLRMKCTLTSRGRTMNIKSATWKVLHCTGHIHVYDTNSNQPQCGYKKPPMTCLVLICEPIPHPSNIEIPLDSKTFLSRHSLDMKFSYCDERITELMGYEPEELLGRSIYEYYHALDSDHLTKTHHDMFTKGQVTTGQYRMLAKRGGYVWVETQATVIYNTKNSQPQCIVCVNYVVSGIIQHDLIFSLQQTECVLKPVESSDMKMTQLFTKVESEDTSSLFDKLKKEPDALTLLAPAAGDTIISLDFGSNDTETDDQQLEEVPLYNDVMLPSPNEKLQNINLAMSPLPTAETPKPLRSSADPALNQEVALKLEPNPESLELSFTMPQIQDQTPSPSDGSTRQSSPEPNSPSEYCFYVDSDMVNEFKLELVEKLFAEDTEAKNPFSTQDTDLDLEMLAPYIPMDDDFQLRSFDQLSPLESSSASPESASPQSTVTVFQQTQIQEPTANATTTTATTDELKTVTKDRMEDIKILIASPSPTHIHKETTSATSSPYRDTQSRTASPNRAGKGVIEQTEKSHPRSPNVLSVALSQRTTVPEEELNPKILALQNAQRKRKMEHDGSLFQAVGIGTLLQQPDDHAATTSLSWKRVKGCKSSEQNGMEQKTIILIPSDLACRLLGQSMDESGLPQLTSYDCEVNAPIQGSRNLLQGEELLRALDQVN

| Binder | binding result [1] | binding result [2] |
| --- | --- | --- |
| B1 | binds | – |
| B2 | – | binds |
| B3 | – | binds |
